T1: Recombinant Human CEACAM-5/CD66e Protein (Homo sapiens, UniProt P06731)
T1 construct: purchased R & D SYSTEMS
T1 sequence (P06731 35-676): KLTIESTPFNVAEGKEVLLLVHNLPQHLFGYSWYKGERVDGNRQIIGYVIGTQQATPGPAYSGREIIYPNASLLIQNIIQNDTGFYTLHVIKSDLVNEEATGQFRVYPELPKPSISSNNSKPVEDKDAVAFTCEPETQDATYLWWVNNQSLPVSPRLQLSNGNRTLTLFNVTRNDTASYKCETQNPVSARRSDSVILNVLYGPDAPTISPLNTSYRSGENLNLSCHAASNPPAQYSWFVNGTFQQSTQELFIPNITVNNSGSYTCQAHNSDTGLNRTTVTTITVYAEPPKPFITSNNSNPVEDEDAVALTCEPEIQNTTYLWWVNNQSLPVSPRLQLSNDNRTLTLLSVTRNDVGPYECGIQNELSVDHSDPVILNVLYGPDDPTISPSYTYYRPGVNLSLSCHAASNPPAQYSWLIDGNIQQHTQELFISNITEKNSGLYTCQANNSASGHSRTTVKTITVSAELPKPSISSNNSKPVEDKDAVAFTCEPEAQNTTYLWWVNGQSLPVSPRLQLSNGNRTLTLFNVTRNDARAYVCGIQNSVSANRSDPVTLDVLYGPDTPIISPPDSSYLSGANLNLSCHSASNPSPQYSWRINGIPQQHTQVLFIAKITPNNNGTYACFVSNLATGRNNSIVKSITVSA


How the values were obtained:
[1] = biological target: T1, Recombinant Human CEACAM-5/CD66e Protein; assay: SPR (Biacore T200) affinity of CEA-V2122 for the antigen CEACAM5; assay type: binding; conditions: bivalent analysis
Method: The affinity of CEA-V2122 for the antigen CEACAM5 was evaluated using a surface plasmon resonance (SPR) measuring device, Biacore T200 (GE Healthcare Life Sciences). Specifically, Recombinant Human CEACAM-5/CD66e Protein, CF (R & D SYSTEMS) was immobilized on Sensor Chip CMS (GE Healthcare Life Sciences) using an amine-coupling kit (GE Healthcare Life Sciences). The fmal amount of the ligand immobilized was 279 RU. Moreover, with regard to the purified CEA-V2122, two-fold serial dilutions from 1E-08 M to 6.25E-10 M were prepared as analytes. Regarding interaction analysis, data were obtained by single-cycle kinetics analysis. Using Biacore T200 Evaluation Software, version 2.0, the obtained data were subjected to curve fitting in a bivalent analysis mode, and the following values were obtained: ka1=3.208E+5, and kd1=3.461E-7.

[2] = tested on: CEACAM5-positive MKN-45 cells and CEACAM5-negative DLD1 cells; assay: Cell staining of CEACAM5-expressing cell line using FITC-labeled CEA-V2122; assay type: cell-based, human; conditions: 20 nM CEA-V2122-FITC
Method: In order to stain a CEACAM5 expression-positive cancer cell line, FITC labeling was carried out on the cell line, using 100 μg of a purified CEA-V2122 protein. Specifically, labeling was carried out using Fluorescein Labeling Kit-NH2 (DOJINDO LABORATORIES) in accordance with the dosage and administration described in the operating manual included with the kit, and the obtained product was defined to be CEA-V2122-FITC. Specific staining of the CEACAM5 expression-positive cancer cell line is as follows. That is, CEACAM5-positive human stomach cancer-derived MKN-45 cells and CEACAM5-negative human colon cancer-derived DLD1 cells were each seeded on a CELLSTAR, μClear, 96-well plate (Greiner) to a cell density of 2.0×10^4 cells/well, and thereafter, the cells were cultured overnight. Subsequently, a culture solution containing 20 nM CEA-V2122-FITC and 1 μM Hoechist was added to the 96-well plate to a concentration of 100 μL/well, and the obtained mixture was then reacted at 4° C. for 30 minutes. Thereafter, each image was taken using In Cell Analyzer 6000 (GE Healthcare Life Sciences).

Row | KD=kd1/ka1 [1] | Molecule | localisation of CEACAM5 after binding (time-series images of MKN45 cells, FIG. 6) [2] | recognition of CEACAM5 on cells (stained cell images, FIG. 5) ([2]; 4° C., 30 minutes)
1 | 1.078E-12 | CEA-V2122: scFv-type anti-CEACAM5 antibody bound with mutant streptavidin V2122 via an amino acid linker (SEQ ID NO: 3) (protein) QVKLEQSGAEVVKPGASVKLSCKASGFNIKDSYMHWLRQGPGQRLEWIGWIDPENGDTEYAPKFQGKATFTTDTSANTAYLGLSSLRPEDTAVYYCNEGTPTGPYYFDYWGQGTLVTVSSGGGGSGGGGSGGGGSENVLTQSPSSMSVSVGDRVNIACSASSSVPYMHWLQQKPGKSPKLLIYLTSNLASGVPSRFSGSGSGTDYSLTISSVQPEDAATYYCQQRSSYPLTFGGGTKLEIKGGGGSGGGGAEAGITGTWSDQLGDTFIVTAGADGALTGTYENAVGGAESRYVLTGRYDSAPATDGSGTALGWTVAWKNNSKNAHSATTWSGQYVGGADAKINTQWLLTSGTTNANAWKSTLVGHDTFTKVKPSAASHHHHHH | – | –
2 | – | CEA-V2122-FITC: purified CEA-V2122 protein labeled using Fluorescein Labeling Kit-NH2 (conjugate) QVKLEQSGAEVVKPGASVKLSCKASGFNIKDSYMHWLRQGPGQRLEWIGWIDPENGDTEYAPKFQGKATFTTDTSANTAYLGLSSLRPEDTAVYYCNEGTPTGPYYFDYWGQGTLVTVSSGGGGSGGGGSGGGGSENVLTQSPSSMSVSVGDRVNIACSASSSVPYMHWLQQKPGKSPKLLIYLTSNLASGVPSRFSGSGSGTDYSLTISSVQPEDAATYYCQQRSSYPLTFGGGTKLEIKGGGGSGGGGAEAGITGTWSDQLGDTFIVTAGADGALTGTYENAVGGAESRYVLTGRYDSAPATDGSGTALGWTVAWKNNSKNAHSATTWSGQYVGGADAKINTQWLLTSGTTNANAWKSTLVGHDTFTKVKPSAASHHHHHH | the CEACAM5 stays on the surface of the cell membrane | specifically recognizes CEACAM5 on the surface of the cell membrane
